Measurements: patent US20210246166A1 (Bayer, published 2021)
Bridge positions count the residues as written; N and C are the ends. Square brackets hold non-standard residues; d marks the D form. Primed or numbered codes have the meaning given here. Ends that are not written are not given here. PEG9(31 atoms) = 1-amino-3,6,9,12,15,18,21,24,27-nonaoxatriacontan-30-oic acid; TTDS(3) = 1,13-Diamino-4,7,10-trioxatridecan-succinamic acid; Oic = O=C(O)[C@@H]1C[C@@H]2CCCC[C@@H]2N1; PEG8 = NCCOCCOCCOCCOCCOCCOCCOCCOCCC(=O)O; PEG6 = NCCOCCOCCOCCOCCOCCOCCC(=O)O; tBuAla = CC(C)(C)C[C@H](N)C(=O)O; Pen = CC(C)(S)[C@H](N)C(=O)O; PEG3 = NCCOCCOCCOCCC(=O)O; NMeA = CN[C@@H](C)C(=O)O; Sar = CNCC(=O)O

T1: recombinant rat MASP1 active protease (amino acids 302-704, C-terminal His Tag) (rat, UniProt Q8CHN8 302-704)
T1 sequence: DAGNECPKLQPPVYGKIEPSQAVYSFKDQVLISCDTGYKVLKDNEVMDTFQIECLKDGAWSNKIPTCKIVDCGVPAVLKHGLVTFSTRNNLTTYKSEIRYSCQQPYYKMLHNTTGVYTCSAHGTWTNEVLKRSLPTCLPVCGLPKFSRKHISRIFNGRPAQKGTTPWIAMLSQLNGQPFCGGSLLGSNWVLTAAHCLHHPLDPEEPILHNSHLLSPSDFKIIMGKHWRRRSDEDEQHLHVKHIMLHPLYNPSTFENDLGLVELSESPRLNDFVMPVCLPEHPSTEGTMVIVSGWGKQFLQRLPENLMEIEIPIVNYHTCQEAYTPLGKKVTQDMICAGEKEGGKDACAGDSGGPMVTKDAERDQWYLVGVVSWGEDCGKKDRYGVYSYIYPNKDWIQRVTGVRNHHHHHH

B1: Example 141: ((N-Me)G)-IC+SRSLP-(Oic)-I-(Pen)+IPD-(PEG8(28 atoms))-NH2 (peptide)
peptide: [Sar]ICSRSLP[Oic]I[Pen]IPD[PEG8]-NH2
modifications: disulfide 3-11; N-terminus assumed
SMILES: CC[C@H](C)[C@H](NC(=O)CNC)C(=O)N[C@H]1CSSC(C)(C)[C@@H](C(=O)N[C@H](C(=O)N2CCC[C@H]2C(=O)N[C@@H](CC(=O)O)C(=O)NCCOCCOCCOCCOCCOCCOCCOCCOCCC(N)=O)[C@@H](C)CC)NC(=O)[C@H]([C@@H](C)CC)NC(=O)[C@@H]2C[C@@H]3CCCC[C@@H]3N2C(=O)[C@@H]2CCCN2C(=O)[C@H](CC(C)C)NC(=O)[C@H](CO)NC(=O)[C@H](CCCNC(=N)N)NC(=O)[C@H](CO)NC1=O
B2: Example 126: ((N-Me)A)-IC+SRS-((tBu)A)-PPI-(Pen)+IP-NH2 (peptide)
peptide: [NMeA]ICSRS[tBuAla]PPI[Pen]IP-NH2
modifications: disulfide 3-11; N-terminus assumed
SMILES: CC[C@H](C)[C@H](NC(=O)[C@H](C)NC)C(=O)N[C@H]1CSSC(C)(C)[C@@H](C(=O)N[C@H](C(=O)N2CCC[C@H]2C(N)=O)[C@@H](C)CC)NC(=O)[C@H]([C@@H](C)CC)NC(=O)[C@@H]2CCCN2C(=O)[C@@H]2CCCN2C(=O)[C@H](CC(C)(C)C)NC(=O)[C@H](CO)NC(=O)[C@H](CCCNC(=N)N)NC(=O)[C@H](CO)NC1=O
B3: Example 109: ((N-Me)G)-IC+SRSLP-(Oic)-I-(Pen)+IP-NH2 (peptide)
peptide: [Sar]ICSRSLP[Oic]I[Pen]IP-NH2
modifications: disulfide 3-11; N-terminus assumed
SMILES: CC[C@H](C)[C@H](NC(=O)CNC)C(=O)N[C@H]1CSSC(C)(C)[C@@H](C(=O)N[C@H](C(=O)N2CCC[C@H]2C(N)=O)[C@@H](C)CC)NC(=O)[C@H]([C@@H](C)CC)NC(=O)[C@@H]2C[C@@H]3CCCC[C@@H]3N2C(=O)[C@@H]2CCCN2C(=O)[C@H](CC(C)C)NC(=O)[C@H](CO)NC(=O)[C@H](CCCNC(=N)N)NC(=O)[C@H](CO)NC1=O
B4: Example 140: ((N-Me)G)-IC+SRSLP-(Oic)-I-(Pen)+IP-(PEG5(22 atoms))-NH2 (peptide)
peptide: [Sar]ICSRSLP[Oic]I[Pen]IP[PEG6]-NH2
modifications: disulfide 3-11; N-terminus assumed
SMILES: CC[C@H](C)[C@H](NC(=O)CNC)C(=O)N[C@H]1CSSC(C)(C)[C@@H](C(=O)N[C@H](C(=O)N2CCC[C@H]2C(=O)NCCOCCOCCOCCOCCOCCOCCC(N)=O)[C@@H](C)CC)NC(=O)[C@H]([C@@H](C)CC)NC(=O)[C@@H]2C[C@@H]3CCCC[C@@H]3N2C(=O)[C@@H]2CCCN2C(=O)[C@H](CC(C)C)NC(=O)[C@H](CO)NC(=O)[C@H](CCCNC(=N)N)NC(=O)[C@H](CO)NC1=O
B5: Example 146: ((N-Me)G)-IC+SRSLP-(Oic)-I-(Pen)+IPD-(PEG5(22 atoms))-NH2 (peptide)
peptide: [Sar]ICSRSLP[Oic]I[Pen]IPD[PEG6]-NH2
modifications: disulfide 3-11; N-terminus assumed
SMILES: CC[C@H](C)[C@H](NC(=O)CNC)C(=O)N[C@H]1CSSC(C)(C)[C@@H](C(=O)N[C@H](C(=O)N2CCC[C@H]2C(=O)N[C@@H](CC(=O)O)C(=O)NCCOCCOCCOCCOCCOCCOCCC(N)=O)[C@@H](C)CC)NC(=O)[C@H]([C@@H](C)CC)NC(=O)[C@@H]2C[C@@H]3CCCC[C@@H]3N2C(=O)[C@@H]2CCCN2C(=O)[C@H](CC(C)C)NC(=O)[C@H](CO)NC(=O)[C@H](CCCNC(=N)N)NC(=O)[C@H](CO)NC1=O

Biological target: T1, recombinant rat MASP1 active protease …
Assay: cell-based or functional assay

| Binder | rat MASP1 IC50 [nM] |
| --- | --- |
| [Sar]ICSRS[tBuAla]PPI[Pen]IP[PEG9(31 atoms)]-NH2 (disulfide 3-11) [Example 44: ((N-Me)G)-IC+SRS-((tBu)A)-PPI-(Pen)+IP-(PEG9(31 atoms))-NH2] | 87 |
| [Sar]ICSRS[tBuAla]PPI[Pen]IP-{PEG5‑CH2CO2H (18 atoms)-NH2} (disulfide 3-11) [Example 55: ((N-Me)G)-IC+SRS-((tBu)A)-PPI-(Pen)+IP-(PEG5-CH2CO2H (18 atoms))-NH2] | 65 |
| B1 | 140 |
| [Sar]ICSRS[tBuAla]PPI[Pen]IP-{TTDS(3)-NH2} (disulfide 3-11) [Example 85: ((N-Me)G)-IC+SRS-((tBu)A)-PPI-(Pen)+IP-(TTDS)-NH2] | 75 |
| B2 | 11 |
| B3 | 76 |
| B4 | 100 |
| [Sar]ICSRS[tBuAla]PPI[Pen]IP-{PEG3-NH2} (disulfide 3-11) [Example 72: ((N-Me)G)-IC+SRS-((tBu)A)-PPI-(Pen)+IP-(PEG2(13 atoms))-NH2] | 43 |
| B5 | 110 |

Biological target: recombinant rat MASP2 active protease (amino acids 296-685, C-terminal His Tag) (rat, UniProt Q9JJS8 296-685)
Sequence (Q9JJS8 other isoform, or with tags, fused parts or gaps limits assumed): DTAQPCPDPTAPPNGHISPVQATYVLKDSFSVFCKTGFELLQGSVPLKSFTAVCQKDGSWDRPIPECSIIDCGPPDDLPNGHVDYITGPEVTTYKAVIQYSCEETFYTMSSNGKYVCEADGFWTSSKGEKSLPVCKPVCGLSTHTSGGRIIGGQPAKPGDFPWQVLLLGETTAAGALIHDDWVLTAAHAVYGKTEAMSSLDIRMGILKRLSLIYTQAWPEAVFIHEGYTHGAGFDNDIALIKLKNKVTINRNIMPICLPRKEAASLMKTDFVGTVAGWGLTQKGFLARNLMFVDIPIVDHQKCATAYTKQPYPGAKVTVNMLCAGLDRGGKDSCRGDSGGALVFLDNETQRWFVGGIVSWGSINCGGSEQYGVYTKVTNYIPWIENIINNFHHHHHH
Assay: cell-based or functional assay

| Binder | rat MASP2 IC50 [nM] |
| --- | --- |
| [Sar]ICSRS[tBuAla]PPI[Pen]IP[PEG9(31 atoms)]-NH2 (disulfide 3-11) [Example 44: ((N-Me)G)-IC+SRS-((tBu)A)-PPI-(Pen)+IP-(PEG9(31 atoms))-NH2] | 35 |
| [Sar]ICSRS[tBuAla]PPI[Pen]IP-{PEG5‑CH2CO2H (18 atoms)-NH2} (disulfide 3-11) [Example 55: ((N-Me)G)-IC+SRS-((tBu)A)-PPI-(Pen)+IP-(PEG5-CH2CO2H (18 atoms))-NH2] | 27 |
| B1 | 95 |
| [Sar]ICSRS[tBuAla]PPI[Pen]IP-{TTDS(3)-NH2} (disulfide 3-11) [Example 85: ((N-Me)G)-IC+SRS-((tBu)A)-PPI-(Pen)+IP-(TTDS)-NH2] | 37 |
| B2 | 10 |
| B3 | 42 |
| B4 | 50 |
| [Sar]ICSRS[tBuAla]PPI[Pen]IP-{PEG3-NH2} (disulfide 3-11) [Example 72: ((N-Me)G)-IC+SRS-((tBu)A)-PPI-(Pen)+IP-(PEG2(13 atoms))-NH2] | 27 |
| B5 | 68 |
